The results in this text go back to patent US20250282874A1.

pEC50: −log10 of the molar value.

The assay concerns the target human PD-L1 expressed on cells (human) (UniProt Q9NZQ7). Kind of assay: flow cytometry on 293T-PD-L1-CD3L cells, PE anti-human IgG, Mean PE-A; fit of a nearly flat control curve.

The substance Isotype control (antibody) gave a pEC50 of 7.54.

In general, pEC50 refers to the negative decadic logarithm of the EC50, by convention in mol/L. Higher therefore signals a low EC50.
